Source: US8114832

Molecular target: endostatin (UniProt P39060)
Experiment: SPR (Biacore), Fn F4-5 immobilized on CM5 chip, concentration series of endostatin

Chain of endostatin (P39060 1572-1754): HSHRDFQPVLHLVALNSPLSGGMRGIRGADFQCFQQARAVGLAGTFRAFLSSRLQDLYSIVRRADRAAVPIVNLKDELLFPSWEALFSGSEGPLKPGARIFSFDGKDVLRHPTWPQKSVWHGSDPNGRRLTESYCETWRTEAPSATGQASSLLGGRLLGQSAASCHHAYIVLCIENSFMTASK

Fn F4-5-His6 (from UniProt P02751 182-276)
concentration of ligand that results in half maximum binding: 800 nM
